Molecular target: T1, mouse TMEM63B (purified, GFP tag removed) (mouse), Q3TWI9
T1 chain: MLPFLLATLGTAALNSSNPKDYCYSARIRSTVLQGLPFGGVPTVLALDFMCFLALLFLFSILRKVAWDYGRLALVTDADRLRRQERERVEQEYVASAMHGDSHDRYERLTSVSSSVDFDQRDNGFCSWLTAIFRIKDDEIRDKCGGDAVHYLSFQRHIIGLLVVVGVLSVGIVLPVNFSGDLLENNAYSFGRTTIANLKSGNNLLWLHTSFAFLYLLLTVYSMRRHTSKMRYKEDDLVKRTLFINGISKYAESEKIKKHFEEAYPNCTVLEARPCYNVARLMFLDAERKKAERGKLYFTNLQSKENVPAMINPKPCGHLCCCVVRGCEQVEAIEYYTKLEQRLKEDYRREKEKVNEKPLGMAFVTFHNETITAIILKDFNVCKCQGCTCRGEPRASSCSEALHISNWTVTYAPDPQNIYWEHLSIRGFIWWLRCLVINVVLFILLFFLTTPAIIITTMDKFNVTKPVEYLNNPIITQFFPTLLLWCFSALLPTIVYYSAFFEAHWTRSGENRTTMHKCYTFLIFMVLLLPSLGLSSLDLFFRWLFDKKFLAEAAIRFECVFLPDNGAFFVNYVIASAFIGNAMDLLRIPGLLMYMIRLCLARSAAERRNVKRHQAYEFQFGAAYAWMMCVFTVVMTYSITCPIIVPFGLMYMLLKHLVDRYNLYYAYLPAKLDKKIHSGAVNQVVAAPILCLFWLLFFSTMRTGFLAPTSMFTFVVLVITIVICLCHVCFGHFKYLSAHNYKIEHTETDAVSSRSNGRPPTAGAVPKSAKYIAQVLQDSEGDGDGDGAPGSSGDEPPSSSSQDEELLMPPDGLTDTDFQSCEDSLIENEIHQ
Assay: cryo-EM 2D classification; purified mouse TMEM63B; 2D classification of particles, top/bottom views
Conditions: remark: other sources report otherwise

stoichiometry N: 2
B1: mouse TMEM63B (purified, GFP tag removed), Q3TWI9 1-832 (natural protein)
chain: T1 chain

— paper PMC10636204
